Measured values: paper PMC5314801 (Nucleic Acids Research, 2016)

T1: RsaL (crystal) (UniProt Q9X7H4 1-80)
T1 sequence: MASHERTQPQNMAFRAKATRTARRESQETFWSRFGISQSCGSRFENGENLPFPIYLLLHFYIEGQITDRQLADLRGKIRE


Assays:
crystal structure = molecular target: the molecule itself; test: crystal structure
SEC = molecular target: the molecule itself; test: SEC
RsaL (crystal) = molecular target: T1, RsaL (crystal); test: X-ray crystallography

| Binder | stoichiometry N (SEC) | also measured |
| --- | --- | --- |
| RsaL (natural protein, Pseudomonas aeruginosa, UniProt Q9X7H4 1-80, looked up) MASHERTQPQNMAFRAKATRTARRESQETFWSRFGISQSCGSRFENGENLPFPIYLLLHFYIEGQITDRQLADLRGKIRE |  | binding result (crystal structure): binds |
| RsaL^Q38A (natural protein, Pseudomonas aeruginosa, UniProt Q9X7H4 1-80, looked up) MASHERTQPQNMAFRAKATRTARRESQETFWSRFGISASCGSRFENGENLPFPIYLLLHFYIEGQITDRQLADLRGKIRE | 2 |  |
| RsaL^R43A (natural protein, Pseudomonas aeruginosa, UniProt Q9X7H4 1-80, looked up) MASHERTQPQNMAFRAKATRTARRESQETFWSRFGISQSCGSAFENGENLPFPIYLLLHFYIEGQITDRQLADLRGKIRE | 2 |  |
| RsaL with Glu45 mutated to Ala (natural protein, Pseudomonas aeruginosa, UniProt Q9X7H4 1-80, looked up) MASHERTQPQNMAFRAKATRTARRESQETFWSRFGISQSCGSRFANGENLPFPIYLLLHFYIEGQITDRQLADLRGKIRE | 2 |  |
| RsaL^Q27A (natural protein, Pseudomonas aeruginosa, UniProt Q9X7H4 1-80, looked up) MASHERTQPQNMAFRAKATRTARRESAETFWSRFGISQSCGSRFENGENLPFPIYLLLHFYIEGQITDRQLADLRGKIRE | 2 |  |
| RsaL R20A (natural protein, Pseudomonas aeruginosa, UniProt Q9X7H4 1-80, looked up) MASHERTQPQNMAFRAKATATARRESQETFWSRFGISQSCGSRFENGENLPFPIYLLLHFYIEGQITDRQLADLRGKIRE | 2 |  |
| lasI promoter crystal duplex DNA_F/DNA_R (dsDNA) DNA 1: AAAAATTATGAAATTTGCATAAATTC DNA 2: TGAATTTATGCAAATTTCATAATTTT |  | binding result (RsaL (crystal)): binds |
